As usually defined, the kon is the second-order rate constant of association. A high value points to fast association. Usually Kd stands for the constant that tells how readily two partners part at equilibrium. Usually koff stands for the first-order rate constant of dissociation.

Test [1] addresses mEph A2 (mouse, UniProt Q03145). Briefly: ELISA. For orientation: ELISA stands for enzyme-linked immunosorbent assay.
The target of test [2] is T1, hEphA2 (human, UniProt P29317).
T1 construct: also called human EphA2
T1 sequence (P29317 25-534 limits assumed): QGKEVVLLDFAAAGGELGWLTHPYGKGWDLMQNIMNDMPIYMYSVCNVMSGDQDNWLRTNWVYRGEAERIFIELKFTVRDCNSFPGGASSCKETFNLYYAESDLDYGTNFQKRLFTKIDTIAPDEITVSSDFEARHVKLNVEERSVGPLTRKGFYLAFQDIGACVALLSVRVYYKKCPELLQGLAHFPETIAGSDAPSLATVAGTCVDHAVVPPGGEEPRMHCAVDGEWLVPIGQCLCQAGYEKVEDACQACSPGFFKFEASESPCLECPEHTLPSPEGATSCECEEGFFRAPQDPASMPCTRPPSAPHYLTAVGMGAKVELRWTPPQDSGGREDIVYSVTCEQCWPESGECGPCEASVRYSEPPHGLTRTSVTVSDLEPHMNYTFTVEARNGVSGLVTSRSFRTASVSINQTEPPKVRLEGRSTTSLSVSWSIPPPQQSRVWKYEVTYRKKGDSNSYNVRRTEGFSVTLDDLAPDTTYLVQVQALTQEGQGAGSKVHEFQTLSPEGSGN
Nature of the test: ELISA.

The target of test [3] is T2, rrEphB1 (rat, UniProt P09759).
T2 sequence (receptor, looked up): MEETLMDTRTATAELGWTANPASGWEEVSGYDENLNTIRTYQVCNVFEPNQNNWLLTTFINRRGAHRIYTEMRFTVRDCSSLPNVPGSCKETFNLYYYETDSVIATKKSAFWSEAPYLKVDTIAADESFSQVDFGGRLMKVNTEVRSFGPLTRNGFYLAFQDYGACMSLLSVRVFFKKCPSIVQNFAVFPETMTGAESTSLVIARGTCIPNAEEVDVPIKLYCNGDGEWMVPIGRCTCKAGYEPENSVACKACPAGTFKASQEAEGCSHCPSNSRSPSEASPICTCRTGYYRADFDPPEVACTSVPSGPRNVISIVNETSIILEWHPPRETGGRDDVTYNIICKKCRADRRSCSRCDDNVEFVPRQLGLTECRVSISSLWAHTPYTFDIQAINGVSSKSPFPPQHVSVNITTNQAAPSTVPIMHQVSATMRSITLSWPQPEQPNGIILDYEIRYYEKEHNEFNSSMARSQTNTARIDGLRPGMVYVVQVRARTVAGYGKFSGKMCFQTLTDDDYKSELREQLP
Briefly: ELISA.

Test [4] concerns the target T3, rmEph B2 (mouse, UniProt P54763).
T3 sequence (receptor, looked up): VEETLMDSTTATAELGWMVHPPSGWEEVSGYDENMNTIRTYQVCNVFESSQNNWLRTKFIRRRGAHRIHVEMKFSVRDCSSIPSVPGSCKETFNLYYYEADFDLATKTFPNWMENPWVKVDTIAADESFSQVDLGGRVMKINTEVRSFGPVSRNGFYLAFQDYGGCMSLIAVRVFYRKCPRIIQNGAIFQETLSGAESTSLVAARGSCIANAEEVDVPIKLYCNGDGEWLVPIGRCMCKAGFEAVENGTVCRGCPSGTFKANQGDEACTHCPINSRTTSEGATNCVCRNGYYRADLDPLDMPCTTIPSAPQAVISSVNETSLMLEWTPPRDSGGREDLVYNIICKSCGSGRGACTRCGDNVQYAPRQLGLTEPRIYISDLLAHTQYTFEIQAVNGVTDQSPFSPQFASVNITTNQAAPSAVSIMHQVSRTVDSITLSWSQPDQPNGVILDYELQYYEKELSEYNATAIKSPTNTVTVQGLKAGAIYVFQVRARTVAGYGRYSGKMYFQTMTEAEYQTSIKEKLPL
Nature of the test: ELISA.

Test [5] addresses T4, rmEph B3 (mouse, UniProt P54754).
T4 sequence (receptor, looked up): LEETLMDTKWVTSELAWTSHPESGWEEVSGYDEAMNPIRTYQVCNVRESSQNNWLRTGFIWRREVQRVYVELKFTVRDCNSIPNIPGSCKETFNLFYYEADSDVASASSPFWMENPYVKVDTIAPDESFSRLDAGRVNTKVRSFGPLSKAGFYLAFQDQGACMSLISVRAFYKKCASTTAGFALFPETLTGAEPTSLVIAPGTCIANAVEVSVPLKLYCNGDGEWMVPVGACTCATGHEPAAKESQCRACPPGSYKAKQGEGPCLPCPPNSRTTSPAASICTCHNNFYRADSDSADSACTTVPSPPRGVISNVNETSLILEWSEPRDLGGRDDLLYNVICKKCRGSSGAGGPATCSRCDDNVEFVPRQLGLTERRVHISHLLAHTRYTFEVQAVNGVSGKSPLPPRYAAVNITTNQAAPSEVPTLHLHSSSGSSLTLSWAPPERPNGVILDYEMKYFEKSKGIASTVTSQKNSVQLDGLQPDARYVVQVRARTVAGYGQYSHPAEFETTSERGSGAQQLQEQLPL
Nature of the test: ELISA.

The target of test [6] is T5, mEphA4 (mouse, UniProt Q03137).
T5 construct: part of an Fc fusion; also called rmuEphA4-Fc
T5 sequence (Q03137 20-547 limits assumed): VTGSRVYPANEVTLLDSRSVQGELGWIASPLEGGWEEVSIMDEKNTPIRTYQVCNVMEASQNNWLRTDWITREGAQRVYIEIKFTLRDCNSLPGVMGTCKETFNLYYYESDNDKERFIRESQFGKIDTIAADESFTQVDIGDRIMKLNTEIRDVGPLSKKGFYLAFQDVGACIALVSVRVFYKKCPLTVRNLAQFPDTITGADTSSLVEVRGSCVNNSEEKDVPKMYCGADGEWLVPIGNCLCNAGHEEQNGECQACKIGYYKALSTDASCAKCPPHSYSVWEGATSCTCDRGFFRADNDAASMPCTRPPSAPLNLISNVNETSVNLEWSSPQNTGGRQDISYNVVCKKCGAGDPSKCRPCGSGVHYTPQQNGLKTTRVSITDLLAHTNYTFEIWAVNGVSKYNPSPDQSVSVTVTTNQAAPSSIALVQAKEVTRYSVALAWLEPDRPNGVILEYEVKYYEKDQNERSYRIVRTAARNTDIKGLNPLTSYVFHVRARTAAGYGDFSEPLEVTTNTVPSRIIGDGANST
Nature of the test: ELISA, receptor coated on the plate, purified IgG, anti-human kappa-HRP. The procedure: (§1) Secondary screening of IgG constructs of affinity optimized combinatorial variants with additional EphA receptors: With purified IgG constructs of the nine combinatorial variants, additional secondary screening assays were performed using the Activity ELISA (see above) and recombinant EphA receptor proteins. More precisely, Nunc Maxisorp plates were coated with the following rEphA proteins: rhuEphAl-Fc; 0.5 μg/well, rmuEphA2-Fc; 0.5 μg/well, rmuEphA3-Fc: 0.1 μg/well, rmuEphA4-Fc; 0.1 μg/well, rratEphA5-Fc; 0.5 μg/well, rmuEphA6-Fc; 0.5 μg/well, rmuEphA7-Fc; 0.1 μg/well, rEphA8; 0.2 μg/well (all R&D Systems), rhuEphA2-Fc; 0.5 μg/well, and rhuEphA4-His; 0.1 μg/well (both produced at MedImmune, Inc.). Plates were blocked with 3% BSA+0.1% Tween20 for 2 h. […] Incubation with a goat anti-human kappa horseradish peroxydase (HRP) conjugate then followed. HRP activity was detected with TMB substrate and the reaction quenched with 0.2 M H₂SO₄. Plates were read at 450 nm. Data was analyzed by normalizing Fab concentrations to the corresponding activity data (see FIGS. 12A-12J and 14).

Test [7] addresses T6, mEphA7 (mouse, UniProt Q61772).
T6 construct: part of an Fc fusion; also called rmuEphA7-Fc
T6 sequence (receptor-Fc fusion, looked up): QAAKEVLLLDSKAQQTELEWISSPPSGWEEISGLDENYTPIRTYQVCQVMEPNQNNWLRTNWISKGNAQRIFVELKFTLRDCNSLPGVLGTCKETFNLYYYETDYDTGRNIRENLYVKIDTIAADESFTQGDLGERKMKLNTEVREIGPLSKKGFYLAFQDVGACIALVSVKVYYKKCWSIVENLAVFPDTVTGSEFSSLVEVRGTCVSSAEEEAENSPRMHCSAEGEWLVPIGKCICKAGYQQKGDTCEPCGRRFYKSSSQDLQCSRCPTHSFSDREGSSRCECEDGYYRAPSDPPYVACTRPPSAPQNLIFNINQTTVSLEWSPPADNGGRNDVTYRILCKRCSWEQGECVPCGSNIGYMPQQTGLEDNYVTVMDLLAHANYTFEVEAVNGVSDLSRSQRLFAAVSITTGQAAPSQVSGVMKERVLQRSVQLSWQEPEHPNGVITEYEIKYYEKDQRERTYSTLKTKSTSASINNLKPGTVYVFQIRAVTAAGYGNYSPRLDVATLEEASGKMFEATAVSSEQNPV
The description is as above. The procedure:
as §1

For test [8], the target named is T7, r murine EphA7 (mouse, UniProt Q61772).
T7 construct: recombinant Fc fusion (R&D Systems); also called rmuEphA7-Fc; mEphA7
T7 sequence (receptor-Fc fusion, looked up): T6 sequence (receptor-Fc fusion, looked up)
Nature of the test: activity ELISA, IgG on coated antigen. The procedure: as §1

Test [9] concerns the target T8, r murine EphA4 (mouse, UniProt Q03137).
T8 construct: recombinant Fc fusion (R&D Systems); also called rmuEphA4-Fc; mEphA4
Briefly: activity ELISA, IgG on coated antigen. The procedure: as §1

For test [10], the target named is T9, Human EphA4-Fc fusion protein (human, UniProt P54764 20-547).
T9 construct: not shown: Fc portion of a human IgG1
T9 sequence (P54764 20-547): as the sequence (Q03137 20-547 limits assumed) above, with A59P, S121N, G124V, Q250R, N251S, S270T, R378K, S406N counted along it
Briefly: BIAcore, IgG immobilized on the sensor chip, EphA4-Fc as analyte; koff and KD printed as ***, comment: off-rate below LOD. As to the method: (§2) FIG. 15A-15B. […] Binding affinities were measured using the BIAcore assay. […] Variant kinetic measurements for human EphA4 and were obtained using BIAcore with immobilized variant antibodies and human EphA4-Fc and EphA4-His as analytes.
A general note: SPR reads the build-up and loss of mass on a sensor chip optically.

Test [11] concerns the target T10, r murine EphA8 (mouse, UniProt O09127).
T10 construct: recombinant soluble protein coated on the plate; also called mEphA8; rEphA8
T10 sequence (receptor construct, looked up): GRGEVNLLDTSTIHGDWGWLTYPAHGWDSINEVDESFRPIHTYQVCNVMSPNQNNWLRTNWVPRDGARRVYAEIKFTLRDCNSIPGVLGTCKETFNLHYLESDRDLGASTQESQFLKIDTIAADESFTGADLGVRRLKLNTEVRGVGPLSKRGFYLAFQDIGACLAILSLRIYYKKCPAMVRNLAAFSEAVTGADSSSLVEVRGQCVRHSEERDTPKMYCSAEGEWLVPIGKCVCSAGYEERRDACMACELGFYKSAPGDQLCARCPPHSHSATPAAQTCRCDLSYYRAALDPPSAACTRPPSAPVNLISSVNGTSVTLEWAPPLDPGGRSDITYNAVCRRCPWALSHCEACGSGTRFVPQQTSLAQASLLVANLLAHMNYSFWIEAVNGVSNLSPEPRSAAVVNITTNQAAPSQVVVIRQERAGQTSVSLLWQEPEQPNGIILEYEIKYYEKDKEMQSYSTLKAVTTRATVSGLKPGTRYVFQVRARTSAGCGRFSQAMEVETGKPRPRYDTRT
Briefly: Activity ELISA, receptor coated on the plate, purified IgG, anti-human kappa-HRP, OD 450 nm. The procedure: as §1

Test [12] addresses T9, Human EphA4-Fc fusion protein. Briefly: BIAcore, IgG immobilized on the sensor chip, EphA4-Fc as analyte. As to the method: as §2

Changes are numbered by the printed parent chain.

mEph A2, sequence (Q03145 26-535 limits assumed): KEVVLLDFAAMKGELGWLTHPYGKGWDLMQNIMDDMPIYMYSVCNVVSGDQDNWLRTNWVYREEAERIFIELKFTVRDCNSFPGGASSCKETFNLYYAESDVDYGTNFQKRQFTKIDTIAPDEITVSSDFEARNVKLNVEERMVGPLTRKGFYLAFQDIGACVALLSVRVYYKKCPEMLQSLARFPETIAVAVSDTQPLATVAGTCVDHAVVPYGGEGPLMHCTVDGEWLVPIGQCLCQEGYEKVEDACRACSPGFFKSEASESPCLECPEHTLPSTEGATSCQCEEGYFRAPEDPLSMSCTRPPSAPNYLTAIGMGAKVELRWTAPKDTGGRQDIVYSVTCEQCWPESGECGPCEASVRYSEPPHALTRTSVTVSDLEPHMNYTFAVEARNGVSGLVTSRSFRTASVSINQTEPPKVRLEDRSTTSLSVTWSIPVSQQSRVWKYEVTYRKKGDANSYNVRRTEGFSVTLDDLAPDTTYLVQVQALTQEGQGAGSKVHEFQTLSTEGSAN
T8 sequence (Q03137 20-547 limits assumed): as the sequence (Q03137 20-547 limits assumed) above

B1: 1D3 (antibody, V domains shown)
VH: EVQLLESGGGLVQPGGSLRLSCAASGFTFSPYDMLWVRQAPGKGLEWVSRIGSSGGYTKYADSVKGRFTISRDNSKNTLYLQMNSLRAEDTAVYYCARARSVVVSSDAFDIWGQGTMVTVSS
VL: DIQMTQSPSSVSASVGDRVTITCRASQGISKWLAWYQQKPGKAPKLLIFGASTLQSGVPSKFSGSKSGTDFTLTISSLQPEDSATYYCQQYNDYPLTFGGGTKVEIK
With B1, the “ELISA O.D. value” in test [1] stood at 0.316.

B2: human Anti-Eph Monoclonal Antibody GEA44 (antibody, V domains shown)
VH: QVQLLQSGAEVKKPGASVKVPCKASGYTFTSYAMSWVRQAPGQGLEWMGWINTNTGNPTYAQGFTGRFVFSLDTSVSTAYLQISSLKAEDTAVYYCARVRTTVYGDGMDVWGQGTLVTVSS
VL: EIVLTQSPATLSVSPGERATLSCRASQSVSSNLAWYQQKPGQAPRLLIYGASTRATGIPDRFSASGSGTDFTLTISRVEPEDFAVYYCQQYGSSWTFGQGTKVEIK
notes: also called mAb GEA44; parental mAb GEA44
Consider B2, for which the “ELISA O.D. value” in test [1] was determined as 0.792; in test [2] it was 0.783; in test [4], 0.535. For the same molecule, the binding result in [3] and in [5] was “binds” in each case.

B3: 3C6 IgG1 (affinity optimized combinatorial variant of mAb GEA44 in human IgG1 format) (antibody, V domains shown)
VH: B2 VH with Y32R, T101L
VL: B2 VL with L33P, A34P
For B3, the binding result in test [6], in [7], in test [8] and in test [9] was “binds” throughout. The kon in test [10] worked out at 464000 M⁻¹ s⁻¹.

B4: 2C9 IgG1 (affinity optimized combinatorial variant of mAb GEA44 in human IgG1 format) (antibody, V domains shown)
VH: B2 VH with Y32R, T101F
VL: B2 VL with A55P, S93P
For the molecule B4, the binding result in test [11], in test [6], in test [7], in test [8] and in [9] was “binds” throughout. The molecule further came in with a Kd in [12] of 44 pM. Besides, in test [12], the koff came to 1.91e-05 s⁻¹. This molecule also had a kon in test [12] of 434000 M⁻¹ s⁻¹.

The values above are taken from US20060121042A1 (AstraZeneca / MedImmune, published 2006).
